Reference: patent US20250368734A1 (ANTENGENE BIOLOGICS, published 2025)

T1: mouse GPRC5D (mouse, UniProt Q9JIL6 1-344)
T1 construct: whole, on cells; HEK293T-mGPRC5D cells; also called mGPRC5D; murine GPRC5D
T1 sequence (looked up): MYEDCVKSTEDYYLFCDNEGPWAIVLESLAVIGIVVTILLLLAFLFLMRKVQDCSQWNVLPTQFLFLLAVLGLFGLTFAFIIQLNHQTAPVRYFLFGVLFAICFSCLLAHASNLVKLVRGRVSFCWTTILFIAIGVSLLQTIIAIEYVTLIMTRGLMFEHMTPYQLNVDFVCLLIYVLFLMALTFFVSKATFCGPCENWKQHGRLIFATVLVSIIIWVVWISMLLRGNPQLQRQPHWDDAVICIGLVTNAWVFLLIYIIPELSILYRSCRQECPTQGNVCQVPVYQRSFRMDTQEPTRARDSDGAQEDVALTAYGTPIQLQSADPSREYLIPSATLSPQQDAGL


Assays:
human GPRC5D [1] = target: T2, human GPRC5D (human, UniProt Q9NZD1 1-345); assay: FACS, OPM-2 cells; note: test concentration or dose not given here
T2 construct: whole, on cells; also called hGPRC5D; G-protein coupled receptor family C group 5 member D
How it was run: (§1)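 Subclone antibodies incubated with parental or GPRC5D-overexpressing HEK293T cells (human, cynomolgus, mouse) and OPM2 cells; bound antibody detected with fluorescent dye-conjugated secondary antibody. Median fluorescence intensity read by FACS.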

mouse GPRC5D = target: T1, mouse GPRC5D; assay: FACS, HEK293T-mGPRC5D cells; note: test concentration or dose not given here
Text: (§2) The subcloning plates were screened by Mirrorball assay and the subclones with good binding ability were expanded to 24-wells for confirmation tests. The specificity and cross-reactivity of these subclones were confirmed with FACS analysis. Briefly, parental HEK293T, HEK293T cells stably over-expressing human GPRC5D protein (i.e., HEK293T-hGPRC5D), HEK293T cells stably over-expressing cynomolgus monkey GPRC5D protein (i.e., HEK293T-cynoGPRC5D), HEK293T cells stably over-expressing mouse GPRC5D protein (i.e., HEK293T-mGPRC5D), and OPM2 cells were incubated with antibodies produced by each subclone, respectively. Fluorescent dye-conjugated secondary antibody was used to detect the binding of the primary antibody with the cells. Median fluorescence intensity (MFI) was measured by FACS analysis,
(§3) As a result, 21 antibodies were discovered with unique sequences showing positive binding with HEK293T-hGPRC5D and OPM2 cells. Among which, some clones could also bind with HEK293T-cynoGPRC5D and/or HEK293T-mGPRC5D. […] ATG596 was a positive human IgG1 control antibody which comprises a VH region having an amino acid sequence as set forth in SEQ ID NO: 199, and a VL region having an amino acid sequence as set forth in SEQ ID NO: 200.

human GPRC5D [2] = target: T2, human GPRC5D; assay: FACS, HEK293T-hGPRC5D cells; note: test concentration or dose not given here
How it was run: as §1

cynomolgus monkey GPRC5D = target: T3, cynomolgus monkey GPRC5D (cynomolgus monkey); assay: FACS, HEK293T-cynoGPRC5D cells; note: test concentration or dose not given here
T3 construct: whole, on cells; HEK293T-cynoGPRC5D cells; also called cynoGPRC5D
Text: as §2, §3

human GPRC5D [3] = target: T2, human GPRC5D; assay: cell-based or functional assay

T2 sequence (Q9NZD1 whole entry): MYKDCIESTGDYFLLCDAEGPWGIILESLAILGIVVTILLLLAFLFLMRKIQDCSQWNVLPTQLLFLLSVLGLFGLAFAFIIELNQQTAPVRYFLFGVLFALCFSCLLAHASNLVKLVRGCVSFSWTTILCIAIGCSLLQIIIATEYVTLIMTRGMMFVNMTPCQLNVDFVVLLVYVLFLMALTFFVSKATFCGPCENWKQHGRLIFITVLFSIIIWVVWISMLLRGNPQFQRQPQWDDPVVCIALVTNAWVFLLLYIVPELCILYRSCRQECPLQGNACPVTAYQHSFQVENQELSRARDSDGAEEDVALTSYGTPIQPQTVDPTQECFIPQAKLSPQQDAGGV

Row | % Positive (human GPRC5D [1]) | MFI (human GPRC5D [1]) | % Positive (mouse GPRC5D) | MFI (mouse GPRC5D) | % Positive (human GPRC5D [2]) | MFI (human GPRC5D [2]) | % Positive (cynomolgus monkey GPRC5D) | MFI (cynomolgus monkey GPRC5D) | EC50 (human GPRC5D [3]) | Binder | Top killing % (human GPRC5D [3])
1 |  |  |  |  |  |  |  |  | 1.88 nM | Bis-116G1G4 (bispecific antibody) chain 1: EVQLQQSGPELVKPGASVKMSCKASGYTFTYYIMHWVKQEPGQGLQWIGYINPYNDGAYYSARFKGKATLTSDKSSSTAYMDLTSLTSEDSAVYYCARGGVRRYFDVWGAGTTVTVSS chain 2: GGGGSGGGGSGGGGSEVQLVESGGGLVQPGRSLRLSCAASGFTFDNYAMHWVRQAPGKGLEWVSGISWNSGSIGYADSVKGRFTISRDNAKNSLYLQMNSLRAEDTALYYCAKDSRGYGDYSRGGAYWGQGTLVTVSSEIVMTQSPATLSVSPGERATLSCRASQSVSSNLAWYQQKPGQAPRLLIYGASTRATGIPARFSGSGSGTEFTLTISSLQSEDFAVYYCQQYNNWPWTFGQGTKVEIK chain 3: DIQMTQSPSSLSASLGERVILTCRASQDIGSNLIWLQQKPDGTIKRLIYATFNLDSGVSKRFSGSRSGSDYSLTISSLDSEDFVDYYCLQYASSPYTFGGGTKLEIK | 69.2%
2 |  |  |  |  |  |  |  |  | 3.62 nM | Bis-110B4H5 (bispecific antibody) chain 1: EVQLQQSGPELVKPGASVKMSCKASGYTFTFYIMHWVKQKPGQGPEWIGYINPYNDGTKYNAKFKGKATLSSDRSSSTAYMELSSLTSEDSAVYYCARGGVRRYFDVWGAGTPVTVSS chain 2: GGGGSGGGGSGGGGSEVQLVESGGGLVQPGRSLRLSCAASGFTFDNYAMHWVRQAPGKGLEWVSGISWNSGSIGYADSVKGRFTISRDNAKNSLYLQMNSLRAEDTALYYCAKDSRGYGDYSRGGAYWGQGTLVTVSSEIVMTQSPATLSVSPGERATLSCRASQSVSSNLAWYQQKPGQAPRLLIYGASTRATGIPARFSGSGSGTEFTLTISSLQSEDFAVYYCQQYNNWPWTFGQGTKVEIK chain 3: DIQMTQSPSSLSASLGERVSLTCRSSQDIGSNLNWLQQEPDGTIKRLIYATFSLDSGVPKRFSGSRSGSHYSLTISSLESEDFVVYYCLQYGSFPYTFGGGTKLEIK | 61.5%
3 |  |  |  |  |  |  |  |  | 1.66 nM | Bis-116F1G6 (bispecific antibody) chain 1: EVQLQHSGPELVKPGASVKMSCKASGYTFTTYVMHWVKQKPGQGLEWIGYINPYNDGTKYNEKFKGKATLTSDKSSSTAYMELSSLTSEDSAVYYCARGGVRRYFDVWGAGTTVTVSS chain 2: GGGGSGGGGSGGGGSEVQLVESGGGLVQPGRSLRLSCAASGFTFDNYAMHWVRQAPGKGLEWVSGISWNSGSIGYADSVKGRFTISRDNAKNSLYLQMNSLRAEDTALYYCAKDSRGYGDYSRGGAYWGQGTLVTVSSEIVMTQSPATLSVSPGERATLSCRASQSVSSNLAWYQQKPGQAPRLLIYGASTRATGIPARFSGSGSGTEFTLTISSLQSEDFAVYYCQQYNNWPWTFGQGTKVEIK chain 3: DIQMTQSPSSLSASLGERVSLTCRASQDIGSNLNWLQQEPNGTIKRLIYATFTLDSGVPKRFSGSRSGSDYSLTISSLESEDFVDYYCLQYASFPYTFGGGTKLEIK | 71.8%

Further lines, the binder ahead of its results:

Row | Binder | % Positive (human GPRC5D [1]) | MFI (human GPRC5D [1]) | % Positive (mouse GPRC5D) | MFI (mouse GPRC5D) | % Positive (human GPRC5D [2]) | MFI (human GPRC5D [2]) | % Positive (cynomolgus monkey GPRC5D) | MFI (cynomolgus monkey GPRC5D) | EC50 (human GPRC5D [3]) | Top killing % (human GPRC5D [3])
4 | 28H9C12 (antibody, V domains shown, Mouse monoclonal antibody from hybridoma subclone; also called 281H9C12) VH: EVQLVESGGGLVKPGGSLKLSCAASGFTFSDYGMHWVRQAPEKGLEWVAYISSGSSTIYYADTVKGRFTISRDNAKNTLFLQMTSLRSEDTAIYYCVRRPWYFDVWGTGTTVTVSS VL: DVLMTQTPLSLPVSLGDQASISCRSSQSIVHSNGNTYLQWYLQKPGQSPKLLIYKVSNRFSGVPDRFSGSGSGTDFTLKISRLEAEDLGVYYCFQGSHVPFTFGSGTKLEIK | 97.9% | 1120 | 1.6% | 121 | 99.6% | 25100 | 99.8% | 18000 |  | 
5 | Bis-98A3A8 (bispecific antibody) chain 1: EVQLQQSGPELVKPGASVKMSCKASGYTFTYYVTHWVRQKPGQGLEWIGYINPYNDGTMFNEKFKGKATLTSDKSSSTAYMEFSSLTSEDSAVFYCARGGVRRYFDVWGAGTTVTVSS chain 2: GGGGSGGGGSGGGGSEVQLVESGGGLVQPGRSLRLSCAASGFTFDNYAMHWVRQAPGKGLEWVSGISWNSGSIGYADSVKGRFTISRDNAKNSLYLQMNSLRAEDTALYYCAKDSRGYGDYSRGGAYWGQGTLVTVSSEIVMTQSPATLSVSPGERATLSCRASQSVSSNLAWYQQKPGQAPRLLIYGASTRATGIPARFSGSGSGTEFTLTISSLQSEDFAVYYCQQYNNWPWTFGQGTKVEIK chain 3: DIQMTQSPSSLSASLGERVSLTCRASQDIGSNLNWLQQKPDGTIKRLIYATSSLDSGVPKRFSGSRSGSDYSLTINSLESEDFVDYYCLQYASFPYTFGGGTKLEIK |  |  |  |  |  |  |  |  | 2.95 nM | 64.4%
6 | Bis-96C9E7 (bispecific antibody) chain 1: EVQLQQSGPELVKPGASVKMSCKASGYTFTYYILHWVKQKPGQGLEWIGYFNPYNDGNKFNERFRGKATLTSDKSSSTAYMELNSLTSEDSAVYFCARGGVRRYFDVWGAGTTVTVSS chain 2: GGGGSGGGGSGGGGSEVQLVESGGGLVQPGRSLRLSCAASGFTFDNYAMHWVRQAPGKGLEWVSGISWNSGSIGYADSVKGRFTISRDNAKNSLYLQMNSLRAEDTALYYCAKDSRGYGDYSRGGAYWGQGTLVTVSSEIVMTQSPATLSVSPGERATLSCRASQSVSSNLAWYQQKPGQAPRLLIYGASTRATGIPARFSGSGSGTEFTLTISSLQSEDFAVYYCQQYNNWPWTFGQGTKVEIK chain 3: DIQMTQSPSSLSASLGERVSLTCRASQDIGSNLNWLQQEPDGTIKRLISATFSLDSGVPKRFSGSRSGSDYSLTISSLESEDFVNYYCLQYASFPYTFGGGTKLEIK |  |  |  |  |  |  |  |  | 2.34 nM | 66.2%
7 | Bis-108C4C12 (bispecific antibody) chain 1: EVQLQQSGPELVKPGASVKMSCKASGYTFTSYVIHWVKQKTGQGLEWIGYFNPYNDGTKYNEEFKGKATLTSDKSSNTAYMELNSLTSDDSAVYFCARGGVRRYFDVWGAGTTVTVSS chain 2: GGGGSGGGGSGGGGSEVQLVESGGGLVQPGRSLRLSCAASGFTFDNYAMHWVRQAPGKGLEWVSGISWNSGSIGYADSVKGRFTISRDNAKNSLYLQMNSLRAEDTALYYCAKDSRGYGDYSRGGAYWGQGTLVTVSSEIVMTQSPATLSVSPGERATLSCRASQSVSSNLAWYQQKPGQAPRLLIYGASTRATGIPARFSGSGSGTEFTLTISSLQSEDFAVYYCQQYNNWPWTFGQGTKVEIK chain 3: DIQMTQSPSSLSASLGERVSLTCRASQDIGSNLNWLQQEPDGTIKRLIYATFGLDSGVPKRFSGSRSGSDYSLTISSLESEDFVDYYCQQYASFPYTFGGGTKLEIK |  |  |  |  |  |  |  |  | 1.44 nM | 67.9%
8 | Bis-26E2H6 (bispecific antibody) chain 1: EVQLVESGGDLVKPGGSLKLSCAASGFTFSSYGMSWVRQTPDKRLEWVATISSGGSYTYYPDSVKGRFTISRDNAKNTLYLQMSSLKSEDTAMYYCARHATDYWGQGTTLTVSS chain 2: GGGGSGGGGSGGGGSEVQLVESGGGLVQPGRSLRLSCAASGFTFDNYAMHWVRQAPGKGLEWVSGISWNSGSIGYADSVKGRFTISRDNAKNSLYLQMNSLRAEDTALYYCAKDSRGYGDYSRGGAYWGQGTLVTVSSEIVMTQSPATLSVSPGERATLSCRASQSVSSNLAWYQQKPGQAPRLLIYGASTRATGIPARFSGSGSGTEFTLTISSLQSEDFAVYYCQQYNNWPWTFGQGTKVEIK chain 3: QIVLTQSPAIMSASPGEKVTMTCSASSSVSYMHWYQQKSGTSPKRWIYDTSKLASGVPARFSGSGSGTSYSLTISSMEAEDAATYYCQQWSSNPLTFGAGTKLELK |  |  |  |  |  |  |  |  | 30.5 nM | 79.1%
9 | 36A3G8 (antibody, V domains shown, Mouse monoclonal antibody from hybridoma subclone) VH: QVQLQQSGAELARPGASVKMSCKASGYTFTTYTMHWIKQRPGQDLEWIGFINPSSGYTKYNQNFKDKATLTADKSSTTAYMQLNSLTSEDSAVYYCASPYGNIYFDVWGTGTTVTVSS VL: DIVMTQSQKFMSTAVGDRVSITCKASQNVGTAVAWYQQKPGQSPKLLIYSASNRYTGVPDRFTGSGSGTDFTLTISNMQSEDLADYFCQQYSSYPLTFGAGTKLELK | 96.3% | 791 |  |  | 99.3% | 31800 | 96.6% | 3110 |  | 
10 | 26E2H6 (antibody, V domains shown, Mouse monoclonal antibody from hybridoma subclone) VH: EVQLVESGGDLVKPGGSLKLSCAASGFTFSSYGMSWVRQTPDKRLEWVATISSGGSYTYYPDSVKGRFTISRDNAKNTLYLQMSSLKSEDTAMYYCARHATDYWGQGTTLTVSS VL: QIVLTQSPAIMSASPGEKVTMTCSASSSVSYMHWYQQKSGTSPKRWIYDTSKLASGVPARFSGSGSGTSYSLTISSMEAEDAATYYCQQWSSNPLTFGAGTKLELK | 97.9% | 1150 | 68.4% | 370 | 99.8% | 27200 | 1% | 116 |  | 
